Experimental data published in IntAct's records for PubMed 16339850.

B1: Zinc finger protein CONSTANS-LIKE 3 (Arabidopsis thaliana (Mouse-ear cress)), Q9SK53 (parent)
chain: MASSSRLCDSCKSTAATLFCRADAAFLCGDCDGKIHTANKLASRHERVWLCEVCEQAPAHVTCKADAAALCVTCDRDIHSANPLSRRHERVPITPFYDAVGPAKSASSSVNFVDEDGGDVTASWLLAKEGIEITNLFSDLDYPKIEVTSEENSSGNDGVVPVQNKLFLNEDYFNFDLSASKISQQGFNFINQTVSTRTIDVPLVPESGGVTAEMTNTETPAVQLSPAEREARVLRYREKRKNRKFEKTIRYASRKAYAEMRPRIKGRFAKRTDSRENDGGDVGVYGGFGVVPSF
partner: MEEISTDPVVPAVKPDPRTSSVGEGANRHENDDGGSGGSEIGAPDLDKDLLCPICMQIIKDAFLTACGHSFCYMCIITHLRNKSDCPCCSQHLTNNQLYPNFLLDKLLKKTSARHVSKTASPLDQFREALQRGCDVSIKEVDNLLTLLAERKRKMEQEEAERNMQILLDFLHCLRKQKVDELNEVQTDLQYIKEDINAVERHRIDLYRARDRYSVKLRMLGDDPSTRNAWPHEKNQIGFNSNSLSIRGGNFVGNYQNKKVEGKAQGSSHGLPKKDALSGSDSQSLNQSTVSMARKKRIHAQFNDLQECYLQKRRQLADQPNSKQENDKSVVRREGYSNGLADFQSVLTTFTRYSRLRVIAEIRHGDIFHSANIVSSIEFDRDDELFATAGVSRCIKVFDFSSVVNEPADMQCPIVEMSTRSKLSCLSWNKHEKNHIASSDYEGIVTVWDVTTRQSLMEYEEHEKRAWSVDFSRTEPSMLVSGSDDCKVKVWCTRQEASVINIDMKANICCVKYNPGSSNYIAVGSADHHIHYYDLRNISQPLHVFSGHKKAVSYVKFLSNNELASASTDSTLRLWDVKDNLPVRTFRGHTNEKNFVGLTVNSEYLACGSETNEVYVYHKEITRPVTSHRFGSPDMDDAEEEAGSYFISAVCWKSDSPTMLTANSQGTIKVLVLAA
B2: E3 ubiquitin-protein ligase COP1 (Arabidopsis thaliana (Mouse-ear cress)), P43254 (parent)
chain: B1 partner
partner: B1 chain

Variants of: B1
Settings: with cop1_arath COP1, P43254

effect of a mutation on the interaction	Variant
disrupting interaction	MASSSRLCDSCKSTAATLFCRADAAFLCGDCDGKIHTANKLASRHERVWLCEVCEQAPAHVTCKADAAALCVTCDRDIHSANPLSRRHERVPITPFYDAVGPAKSASSSVNFVDEDGGDVTASWLLAKEGIEITNLFSDLDYPKIEVTSEENSSGNDGVVPVQNKLFLNEDYFNFDLSASKISQQGFNFINQTVSTRTIDVPLVPESGGVTAEMTNTETPAVQLSPAEREARVLRYREKRKNRKFEKTIRYASRKAYAEMRPRIKGRFAKRTDSRENDGGDVGVYGGFGVAASF [V291A;P292A]

Variants of: B2
Settings: with col3_arath COL3, Q9SK53

effect of a mutation on the interaction	Variant
disrupting interaction strength	G524E
